Columns and labels:
Hepatitis A virus (HAV) = assay: cell-based or functional assay
Rotavirus = assay: cell-based or functional assay
[1] = target: Human infectious Norovirus (genotype GII-4); assay: Norovirus captured on Con A-bound sepharose 4B resin, Ct values by RT-PCR
[2] = target: Human infectious Norovirus (genotype GII-4); assay: BLI, antibody and Con A each immobilized on ARG2 chips, same concentration of Norovirus

## concanavalin A (Con A, sigma) (from UniProt P02866 30-281)
Hepatitis A virus (HAV)
  concentration of HAV (copy number by RT-PCR) in FRhk-4 cells, Con A plus HAV group: 27000 unit
Rotavirus
  concentration of Rotavirus (copy number by RT-PCR) in MA-104 cells, Con A plus Rotavirus group: 64000 unit
[1]
  collection rate: 94.1%
[2]
  fold stronger binding than the antibody: 3 fold

Reference: patent US20170285011A1
